Measurements from patent publication US20260043816A1 (AC IMMUNE, published 2026).
Residue numbers refer to the chain shown, from its start. One block for each binder: values may come before it. Square brackets hold non-standard residues; d marks the D form. Ends that are not written are not given here. * marks the point of attachment. Biotin = O=C1N[C@H]2[C@H](CS[C@H]2CCCCC(=O)*)N1; pS = N[C@@H](COP(=O)(O)O)C(=O)O

Columns and labels:
[1] = target: T1, biotinylated TDP-43 phospho peptide 370-384 (pS375 and pS379) (human); test: capture ELISA, antibody on anti-mouse IgG, biotinylated peptide
T1 peptide: Biotin-GNNSY[pS]GSN[pS]GAAIG
Procedure: (§1) Briefly, for capture detection in ELISA, wells of 96-well plates were coated with 5 μg/mL goat anti-mouse IgG (Fc gamma fragment specific), in carbonate buffer, overnight at 4° C. Plates were then washed with 0.05% Tween-20/PBS and blocked with 1% bovine serum albumin (BSA) in 0.05% Tween-20/PBS for 1 hour at 37° C. Phospho TDP-43 antibodies were then added at 5 μg/mL and incubated for 2 hours at 37° C. after which the plates were washed as described above. Biotinylated peptides representing each of the phospho sites, or non-phosphorylated, were incubated at 0.5 mM in 0.1% BSA and PBS for 1 hour at 37° C. after which the plates were washed. A streptavidin-HRP-conjugate (R&D Systems, Minnesota, United States) was added at 1/200 dilution in 0.05% Tween-20/1% BSA in PBS for 45 minutes in the dark at ambient temperature. After the final wash, plates were incubated with TMB (Sigma-Aldrich, Switzerland), an HRP substrate solution, and read at 405 nm using an ELISA plate reader (Tecan, Switzerland).

[2] = target: T2, biotinylated TDP-43 phospho peptide 370-384 (pS375) (human); test: as above
T2 peptide: Biotin-GNNSY[pS]GSNSGAAIG
Procedure: as §1

[3] = target: T3, biotinylated TDP-43 phospho peptide 370-384 (pS379) (human); test: as above
T3 peptide: Biotin-GNNSYSGSN[pS]GAAIG
Procedure: as §1

[4] = target: T4, biotinylated non-phosphorylated TDP-43 peptide 366-414 (human, biotin on the N-terminus); test: as above
T4 peptide: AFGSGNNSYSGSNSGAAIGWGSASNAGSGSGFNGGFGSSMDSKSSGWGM
Procedure: as §1

[5] = target: T5, biotinylated TDP-43 phospho peptide 401-413 (pS409 and pS410) (human); test: as above
T5 peptide: Biotin-FGSSMDSK[pS][pS]GWG
Procedure: as §1

[6] = target: T6, biotinylated TDP-43 phospho peptide 401-413 (pS409) (human); test: as above
T6 peptide: Biotin-FGSSMDSK[pS]SGWG
Procedure: as §1

[7] = target: T7, biotinylated TDP-43 phospho peptide 401-413 (pS410) (human); test: as above
T7 peptide: Biotin-FGSSMDSKS[pS]GWG
Procedure: as §1

[8] = target: T8, recombinant full length TDP-43 (SEQ ID NO: 1, FL TDP-43) (human, UniProt Q13148 1-414); test: pairing sandwich ELISA, antibody coated as capture, FL TDP-43 titrated
T8 construct: also called recombinant human soluble FL TDP-43; soluble human TDP-43
Procedure: (§2) The capacity of antibodies to bind phospho TDP-43 and TDP-43 was determined using a sandwich enzyme-linked immunosorbent assay (ELISA), where each antibody was paired with a second TDP-43 antibody previously characterized for TDP-43 binding and performance in sandwich immunoassays, ACI-7071-809F12-Ab1-rec2 (as described in WO2020234473) or ACI-7069-636E5-Ab1 (as described in WO2020234473). ELISA plates (Nunc™ Edge™ 96-Well, Non-Treated, Flat-Bottom Microplate, ThermoFisher Scientific, Denmark) were coated with 5 μg/mL of anti-phospho TDP-43 or anti-TDP-43 antibodies in carbo/bicarbonate buffer, overnight at 4° C. Plates were then washed with 0.05% Tween-20/PBS and blocked with 1% bovine serum albumin (BSA) in 0.05% Tween-20/PBS for 1 hour at 37° C. The plates were then washed again as described above.
Serial-dilutions of target peptide or protein were then added to the plates. For assays with anti-phospho TDP-43 antibodies, one of four peptide conjugates (peptides 11, 23, 28, or 29) each composed of two TDP-43 sequences, one phosphorylated and one non-phosphorylated, conjugated together with a Trioxatridecan-succinamic acid linker (Ttds, binding regions and sequences shown in Table 4) were used. Peptides 11, 23, 28, and 29 were added in a 10-fold serial dilution starting at 0.5 μM. For assays with TDP-43 antibodies only, recombinant full length TDP-43 (SEQ ID NO: 1, FL TDP-43) was diluted 3-fold from 21.9 pM. Plates were incubated for 1 hour at 37° C., and then washed. […] PEG-biotinylated phospho TDP-43 or TDP-43 antibodies were then respectively added to the wells and incubated for 1 hour at 37° C., after which the plates were washed. Horseradish peroxidase (HRP)-conjugated streptavidin (R&D Systems, Switzerland) was added at 1/200 dilution in 1% BSA and 0.05% Tween-20/PBS for 45 min at room temperature. […] The plate was read at 450 nm using an ELISA plate reader (Tecan, Switzerland).

[9] = target: T8, recombinant full length TDP-43 (SEQ ID …); test: pairing sandwich ELISA, biotinylated antibody as detector, FL TDP-43 titrated
Procedure: as §2
(§3) Serial-dilutions of target peptide or protein were then added to the plates. For assays with anti-phospho TDP-43 antibodies, one of four peptide conjugates (peptides 11, 23, 28, or 29) each composed of two TDP-43 sequences, one phosphorylated and one non-phosphorylated, conjugated together with a Trioxatridecan-succinamic acid linker (Ttds, binding regions and sequences shown in Table 4) were used. Peptides 11, 23, 28, and 29 were added in a 10-fold serial dilution starting at 0.5 μM. […] The plate was read at 450 nm using an ELISA plate reader (Tecan, Switzerland).

Peptide 29 [10] = target: T9, Peptide 29 (human, phosphoserine at pS409 and pS410 (human TDP-43 numbering, in the SEQ ID NO: 9 part); Trioxatridecan-succinamic acid (Ttds) linker between SEQ ID NO: 7 and SEQ ID NO: 9); test: pairing sandwich ELISA, antibody coated as capture, target titrated
T9 peptide: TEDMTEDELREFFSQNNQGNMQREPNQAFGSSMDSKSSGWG
Procedure: as §2, §3

Peptide 29 [11] = target: T9, Peptide 29; test: pairing sandwich ELISA, biotinylated antibody as detector, target titrated
Procedure: as §2, §3

Peptide 29 [12] = target: T9, Peptide 29; test: SPR Biacore 8K, antibody captured, peptide analyte, single-cycle kinetics, 1:1 fit
Procedure: (§4) Each cycle started with the non-covalent capture of the antibody which were diluted in running buffer to a final concentration of 5 μg/mL and injected for 120 sec with a flow rate of 10 μL/min. Antibodies being measured were captured in channels […], leaving Fc 1 as a blank Fc. Capture levels were evaluated following a 120 sec stabilization period after each antibody injection. ACI-7071-809F12-Ab1-rec2 was used as control, binding to the non-phosphorylated sequences represented in peptides 28 and 29.
(§5) Injections of peptides 28 or 29 were performed using single-cycle kinetics with increasing concentrations ranging from 1.2 to 100 nM prepared as a 3-fold serial dilution. Injections were performed with contact times of 300 sec/injection at a flow rate of 30 μL/min. A dissociation phase of 900 sec followed the final injection. Sensor surface was regenerated by two injection of 10 mM Glycine-HCl pH 1.7 at a flow rate of 10 μL/min for 60 sec, followed by a stabilization period of 120 sec. Results obtained from single-cycle kinetics were double-referenced using the blank Fc 1 and buffer cycles and evaluated by Biacore 8K evaluation software (Cytiva). The following kinetic parameters were obtained using the 1:1 binding fit model with variable Reflective Index (RI): association rate constant (ka), dissociation rate constant (kd), affinity constant (KD) and saturation response (Rmax).

Peptide 29 [13] = target: T9, Peptide 29; test: SPR Biacore 8K, antibody from purified hybridoma supernatant captured, peptide analyte, 1:1 fit
Procedure: as §4, §5

B1: ACI-8071-943.7D3-Ab1 (antibody, V domains shown)
VH: QVQLQQPGTELVKPGASVKLSCKASGYTFTRYWMHWMKQRPGQGLEWIGNINPSDGGTNYNEKFKNKASLTVDKSSSTAYMQLSRLTSEDSAVYYCARRGSGYWGQGTTLTVSS
VL: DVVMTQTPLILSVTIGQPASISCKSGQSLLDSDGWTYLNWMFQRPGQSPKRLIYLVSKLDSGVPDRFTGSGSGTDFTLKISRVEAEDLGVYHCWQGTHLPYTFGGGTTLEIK
notes: also called 943.7D3E2; pS403/pS404 TDP-43 antibody
binding result [1]: no binding (tested: peptide at 0.5 mM)
binding result [2]: no binding (tested: peptide at 0.5 mM)
binding result [3]: no binding (tested: peptide at 0.5 mM)
binding result [4]: no binding (tested: peptide at 0.5 mM)

B4: ACI-8071-943.12A8-Ab1 (antibody, V domains shown)
VH: EVQLVESGGGLVHPKGSLQLSCAASGFTFNTYTMHWVRQAPGKGLEWVARIRSKRSNYATYYADSVKDRFTISRDDSQSMLYLQMNNLKTEDTAIYYCVRGTGSYWGQGTSVTVSS
VL: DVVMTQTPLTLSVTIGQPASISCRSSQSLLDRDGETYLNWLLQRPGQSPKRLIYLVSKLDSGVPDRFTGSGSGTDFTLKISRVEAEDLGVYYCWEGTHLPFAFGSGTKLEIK
notes: also called 943.12A8B4; pS403/pS404 TDP-43 antibody
binding result [1]: no binding (tested: peptide at 0.5 mM)
binding result [2]: no binding (tested: peptide at 0.5 mM)
binding result [3]: no binding (tested: peptide at 0.5 mM)
binding result [5]: no binding (tested: peptide at 0.5 mM)
binding result [6]: no binding (tested: peptide at 0.5 mM)
binding result [7]: no binding (tested: peptide at 0.5 mM)
binding result [4]: no binding (tested: peptide at 0.5 mM)

B5: ACI-8071-943.7H9-Ab1 (antibody, V domains shown)
VH: EIQLQQSGTVMARPGASVKMSCKTSGYIFTNYWMHWVKQRPGQGLDWIGTIYPGNSDTDYNQNFKGKAKLTAVTSASTAYMELSSLTNEDSAVYFCIRGGWGGFPYWGQGTLVTVSA
VL: DVVMTQIPLSLPVSLGDQASISCRSSQRLVHSNGNTYLHWYLQKPGQSPKFLIHKVSNRFSGVPDRFSGSGSGTDFTLKIRRVEAEDLGVYFCCQSTHVPYTFGGGTKLEIK
notes: also called 943.7H9H8; pS403/pS404 TDP-43 antibody
binding result [1]: no binding (tested: peptide at 0.5 mM)
binding result [2]: no binding (tested: peptide at 0.5 mM)
binding result [3]: no binding (tested: peptide at 0.5 mM)
binding result [4]: no binding (tested: peptide at 0.5 mM)

B6: ACI-8072-946.8H6-Ab1 (antibody, V domains shown)
VH: EEHLVESGGGLVKPGGSLKLSCAASGFTFSDYGMQWVRQAPEKGLEWVAYISSGSSTIYYEDTVKGRFTISRDNAKNTLFLQMTSLRSEDTAMYYCVRPYDNYGQGTLVTVSA
VL: DVLMTQTPLSLPVSLGDQASISCRSSQSIVHSNGNTYLEWYLQKPGQSPKLLIYKVSNRFSGVPDRFSGSGSGTDFTLKISRVEAEDVGVYYCFQGSHVPRTFGGGTKLEIK
notes: also called 946.8H6D10; pS409/pS410 TDP-43 antibody
EC50 (Peptide 29 [10]): 0.111 nM
EC50 (Peptide 29 [11]): 1.12 nM
Kd (Peptide 29 [12]): 3.28 nM
koff (Peptide 29 [12]): 0.00469 s⁻¹
kon (Peptide 29 [12]): 1.43e+06 M⁻¹ s⁻¹

B7: ACI-8072-946.9D6-Ab1 (antibody, V domains shown)
VH: B6 VH
VL: DIVLTQSPASLAVSLGQRATISCRASKSVSTSGYSYMHWYQQKPGQPPKLLIYLASNLESGVPARFSGSGSGTDFTLNIHPVEEEDAATYYCQHSRELPWTFGGGTKLEIK
notes: Data marked * were generated with hybridoma / purified hybridoma supernatant; also called 946.9D6F3
Kd (Peptide 29 [13]): 2.29 nM
koff (Peptide 29 [13]): 0.000707 s⁻¹
kon (Peptide 29 [13]): 309000 M⁻¹ s⁻¹

The next lines start with the values.

binding result [1]: no binding (tested: peptide at 0.5 mM)
binding result [2]: no binding (tested: peptide at 0.5 mM)
binding result [3]: no binding (tested: peptide at 0.5 mM)
binding result [5]: no binding (tested: peptide at 0.5 mM)
binding result [6]: no binding (tested: peptide at 0.5 mM)
binding result [7]: no binding (tested: peptide at 0.5 mM)
binding result [4]: no binding (tested: peptide at 0.5 mM)
B2: ACI-8071-943.2E6-Ab1 (antibody, V domains shown)
VH: B1 VH with R31S, M37V, S54I, D55N, G56S, G57D, N66T, S69T, R85S
VL: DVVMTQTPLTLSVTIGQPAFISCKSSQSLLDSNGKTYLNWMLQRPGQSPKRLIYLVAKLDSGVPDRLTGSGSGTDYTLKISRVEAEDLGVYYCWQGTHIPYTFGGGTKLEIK
notes: also called 943.2E6E10; pS403/pS404 TDP-43 antibody

EC50 [8]: 1.16 nM
EC50 [9]: 0.07 nM
B3: ACI-7069-636E5-Ab1 (as described in WO2020234473) (antibody, V domains shown)
VH: EVHLVESGGDLVMPGGSLKLSCAASGFTFSNYGMSWVRQTPDKRLEWVATISSGGKYINYLDSLKGRFTISRDNAKNTLYLQMSSLKSEDTAMYYCAKDYGSGWAWFAYWGQGTLVTVSA
VL: QLVLTQSSSASFSLGASAKLTCTLSSQHSTYTIEWYQQQPLKPPKYVMELKKDGSHSTGDGIPDRFSGSSSGADRYLSISNIQPEDEAIYICGVGDTIKEQFVYVFGGGTKVTVL
notes: also called 636E5B8

EC50 (Peptide 29 [10]): 0.196 nM
EC50 (Peptide 29 [11]): 1.96 nM
Kd (Peptide 29 [12]): 1.68 nM
koff (Peptide 29 [12]): 0.000817 s⁻¹
kon (Peptide 29 [12]): 487000 M⁻¹ s⁻¹
B8: ACI-8072-946.4G5-Ab1 (antibody, V domains shown)
VH: B6 VH with E2V, H3Q, Q35H, E61A, I70M, V97S, D101G
VL: B6 VL with V88L
notes: also called 946.4G5F1; pS409/pS410 TDP-43 antibody
